Test results as given in the supplement of paper PMC7877785.
± gives the uncertainty stated by the source.

Assay: self-splicing fitness, log relative to wild type (ln ratio); higher = more splicing; Tetrahymena group I intron in knt gene, E. coli kanamycin selection, DiMSum; sequences stand for … in CUCUCU…GGAGGGAAAAGUUAUCAGGCAUGCACCUGGUAGCUAGUCUUUAAACCAAUAGAUUGCAUCGGUUUAAAAGGCAAGACCGUCAAAUUGCGGGAAAGGGGUCAACAGCCGUUCAGUACCAAGUCUCAGGGGAAACUUUGAGAUGGCCUUGCAAAGGGUAUGGUAAUAAGCUGACGGACAUGGUCCUAACCACGCAGCCAAGUCCUAAGUCAACAGAUCUUCUGUUGAUAUGGAUGCAGUUCACAGACUAAAUGUCGGUCGGGGAAGAUGUAUUCUUCUCAUAAGAUAUAGUCGGACCUCUCCUUAAUGGGAGCUAGCGGAUGAAGUGAUGCAACACUGGAGCCGCUGGGAACUAAUUUGUAUGCGAAAGUAUAUUGAUUAGUUUUGGAGUACUCGUGGUCG
Outline: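 Colonies from six replicate transformations of E. coli BL21(DE3) were pooled and amplicon-sequenced on an Illumina HiSeq 2500. The library placed an intron with all eight P1ex-region nucleotides randomised inside the knt kanamycin-resistance gene on pET-22b(+), and cells grew overnight at 37°C or 30°C on LB agar with or without 25 μg/mL kanamycin (plus 100 μg/mL carbenicillin, 50 μM IPTG, 0.2% rhamnose). Fitness is the DiMSum error-weighted combination of wild-type-normalised replicate fold changes, kanamycin versus none.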

Sequence	self-splicing fitness (ln) (30 °C)	self-splicing fitness (ln) (37 °C)
GUGAAGCAAUAUUACGGUCU	0.172 ± 0.098	0.824 ± 0.096
UUAGAGCAAUAUUACGGAGA	-0.579 ± 0.13	-0.654 ± 0.23
GACAAGCAAUAUUACGGUGC	-2.77 ± 0.21	-1.63 ± 0.24
GAUGAGCAAUAUUACGCCCG	-3 ± 0.36	-2.08 ± 0.43
ACAGAGCAAUAUUACGUUUU	-3.47 ± 0.24	-3.26 ± 0.32
AUGUAGCAAUAUUACGGACU	-0.734 ± 0.11	-0.231 ± 0.14
UCCUAGCAAUAUUACGUGCG	-3.5 ± 0.2	-1.98 ± 0.16
UUCGAGCAAUAUUACGUGUC	-3.11 ± 0.23	-2.77 ± 0.34
ACUAAGCAAUAUUACGUCCC	-1.43 ± 0.22	-1.07 ± 0.32
GCUCAGCAAUAUUACGAUAC	-1.15 ± 0.13	-0.697 ± 0.17
ACGCAGCAAUAUUACGCGGU	-4.57 ± 0.19	-2.37 ± 0.12
UCACAGCAAUAUUACGUUGG	-2.84 ± 0.11	-2.81 ± 0.18
ACACAGCAAUAUUACGCUGU	-3.38 ± 0.14	-3 ± 0.21
UCGAAGCAAUAUUACGGUAU	-3.58 ± 0.16	-1.73 ± 0.14
UGACAGCAAUAUUACGGCGC	-2.47 ± 0.15	-1.25 ± 0.15
CGAAAGCAAUAUUACGAGCA	-2.3 ± 0.25	-0.869 ± 0.24
GGCGAGCAAUAUUACGCGGA	-2.3 ± 0.17	-0.458 ± 0.13
GCUCAGCAAUAUUACGUGCU	-2.26 ± 0.086	-0.582 ± 0.09
AAUCAGCAAUAUUACGAGAA	-1.61 ± 0.26	-1.61 ± 0.2
GCGUAGCAAUAUUACGCUUC	–	-0.836 ± 0.35
UAUGAGCAAUAUUACGUAGA	-2.7 ± 0.18	-2.46 ± 0.2

Sequence	self-splicing fitness (ln) (30 °C)	self-splicing fitness (ln) (37 °C)
CACGAGCAAUAUUACGCCUG	-3.26 ± 0.23	-2.38 ± 0.17
UCUAAGCAAUAUUACGAUCU	-3.07 ± 0.23	-2.08 ± 0.2
CUCGAGCAAUAUUACGUUCA	-3.47 ± 0.35	–
AGCAAGCAAUAUUACGCUGC	-1.58 ± 0.2	-3.1 ± 0.31
UGCCAGCAAUAUUACGUUAA	-2.48 ± 0.15	-0.729 ± 0.095
GCGCAGCAAUAUUACGCUUA	-0.793 ± 0.062	-0.338 ± 0.067
UUGCAGCAAUAUUACGUCCG	-1.24 ± 0.1	0.0449 ± 0.14
UGGAAGCAAUAUUACGUGCU	-2.92 ± 0.19	-1.7 ± 0.17
CGGCAGCAAUAUUACGCACA	-0.39 ± 0.1	-0.122 ± 0.14
UUAGAGCAAUAUUACGGGUG	-3.1 ± 0.33	-0.89 ± 0.2
ACAGAGCAAUAUUACGCCAG	-2.37 ± 0.35	-1.71 ± 0.49
UCAGAGCAAUAUUACGUUCG	-1.54 ± 0.11	-1.07 ± 0.15
CGACAGCAAUAUUACGCUGU	-3.04 ± 0.14	-2.55 ± 0.15
GUUAAGCAAUAUUACGAGAU	-2.48 ± 0.3	-1.81 ± 0.35
GUGCAGCAAUAUUACGCCUG	-2.95 ± 0.2	-2.49 ± 0.26
UAGAAGCAAUAUUACGAACC	-2.02 ± 0.24	-0.44 ± 0.3
GGGUAGCAAUAUUACGCAAG	-1.59 ± 0.11	-0.847 ± 0.16
UUUCAGCAAUAUUACGAGAA	-1.92 ± 0.37	-1.49 ± 0.24
ACCUAGCAAUAUUACGAGGU	-3.09 ± 0.17	-2.43 ± 0.17
CACUAGCAAUAUUACGAGCU	-3.44 ± 0.18	-2.75 ± 0.17
GUACAGCAAUAUUACGCAAG	-2.59 ± 0.16	-2.08 ± 0.17

Sequence	self-splicing fitness (ln) (30 °C)	self-splicing fitness (ln) (37 °C)
AGACAGCAAUAUUACGUCAC	-3 ± 0.23	-3.41 ± 0.19
GUGGAGCAAUAUUACGAUCG	–	-3.31 ± 0.47
AGCUAGCAAUAUUACGAGUG	-0.877 ± 0.066	-0.529 ± 0.084
UCUGAGCAAUAUUACGAUAC	–	-2.12 ± 0.25
AAAUAGCAAUAUUACGGACA	-1.08 ± 0.12	-0.512 ± 0.13
GUAUAGCAAUAUUACGACGC	-0.42 ± 0.16	0.113 ± 0.18
UACUAGCAAUAUUACGAGCA	-0.343 ± 0.12	0.447 ± 0.15
UGCAAGCAAUAUUACGUUCG	-0.427 ± 0.048	-0.226 ± 0.067
CCAGAGCAAUAUUACGCAGG	-3.56 ± 0.15	-2.53 ± 0.17
CUAAAGCAAUAUUACGUAGU	-4.53 ± 0.2	-2.59 ± 0.17
ACUAAGCAAUAUUACGUUGG	-2.95 ± 0.12	-1.73 ± 0.11
UCACAGCAAUAUUACGGCCG	-1.24 ± 0.1	-0.536 ± 0.15
ACGAAGCAAUAUUACGAAGC	-3.6 ± 0.27	-2.61 ± 0.3
GCCAAGCAAUAUUACGCAGG	-2.98 ± 0.17	-2.05 ± 0.24
UCGGAGCAAUAUUACGGCUU	-3.05 ± 0.32	-1.45 ± 0.35
CCACAGCAAUAUUACGCUUA	-3.43 ± 0.16	-2.98 ± 0.18
GGCCAGCAAUAUUACGUAUA	-3.92 ± 0.26	-2.23 ± 0.2
GCUCAGCAAUAUUACGAUAU	-0.622 ± 0.084	0.0543 ± 0.09
CUAUAGCAAUAUUACGUUAA	-4.29 ± 0.47	-3.36 ± 0.42
